Experimental data: article PMC9895041, “Molecular evolutionary insight of structural zinc atom in yeast xylitol dehydrogenases and its application in bioethanol production by lignocellulosic biomass” (Scientific Reports, 2023)
Positions count from the first letter of the chain named. Names and notes keep the numbering of the source.

B1: PsXDHC4 mutant (xylitol dehydrogenase from Pichia stipitis, S96C/S99C/Y102C) (enzyme)
chain: TANPSLVLNKIDDISFETYDAPEISEPTDVLVQVKKTGICGSDIHFYAHGRIGNFVLTKPMVLGHESAGTVVQVGKGVTSLKVGDNVAIEPGIPCRFCDECKSGHYNLCPHMAFAATPNSKEGEPNPPGTLCKYFKSPEDFLVKLPDHVSLELGALVEPLSVGVHASKLGSVAFGDYVAVFGAGPVGLLAAAVAKTFGAKGVIVVDIFDNKLKMAKDIGAATHTFNSKTGGSEELIKAFGGNVPNVVLECTGAEPCIKLGVDAIAPGGRFVQVGNAAGPVSFPITVFAMKELTLFGSFRYGFNDYKTAVGIFDTNYQNGRENAPIDFEQLITHRYKFKDAIEAYDLVRAGKGAVKCLIDGPE
notes: xylitol dehydrogenase (XDH) of Pichia stipitis (Scheffersomyces stipitis), encoded by the PICST_86924 gene, cloned into pQE-81L; the model holds Thr2-Pro362 (Ser121-Gly124 not built); source: E. coli DH5α, purified (Ni-NTA, Superdex 200)
B2: PsXDH (Scheffersomyces stipitis CBS 6054) (protein)
chain: MTANPSLVLNKIDDISFETYDAPEISEPTDVLVQVKKTGICGSDIHFYAHGRIGNFVLTKPMVLGHESAGTVVQVGKGVTSLKVGDNVAIEPGIPSRFSDEYKSGHYNLCPHMAFAATPNSKEGEPNPPGTLCKYFKSPEDFLVKLPDHVSLELGALVEPLSVGVHASKLGSVAFGDYVAVFGAGPVGLLAAAVAKTFGAKGVIVVDIFDNKLKMAKDIGAATHTFNSKTGGSEELIKAFGGNVPNVVLECTGAEPCIKLGVDAIAPGGRFVQVGNAAGPVSFPITVFAMKELTLFGSFRYGFNDYKTAVGIFDTNYQNGRENAPIDFEQLITHRYKFKDAIEAYDLVRAGKGAVKCLIDGPE
notes: full length, N-terminal His6 tag (pQE-81L), E. coli DH5alpha; homotetramer; 7Y9P is the apo C4 mutant
B3: PsXDH (Scheffersomyces stipitis CBS 6054; S96C/S99C/Y102C) (protein)
chain: B2 chain with S96C, S99C, Y102C
notes: as for B2
B4: PsXDH (Scheffersomyces stipitis CBS 6054; S96D/S99C/Y102C) (protein)
chain: B2 chain with S96D, S99C, Y102C
notes: as for B2
B5: ScXDH (Saccharomyces cerevisiae S288C) (protein)
chain: MTDLTTQEAIVLERPGKITLTNVSIPKISDPNEVIIQIKATGICGSDIHYYTHGRIANYVVESPMVLGHESSGIVALIGENVKTLKVGDRVALEPGIPDRFSPEMKEGRYNLDPNLKFAATPPFDGTLTKYYKTMKDFVYKLPDDVSFEEGALIEPLSVAIHANKLAKIKFGARCVVFGAGPIGLLAGKVASVFGAADVVFVDLLENKLETARQFGATHIVNSGDLPHGVTVDSVIKKAIGKKGADVVFECSGAEPCVRAGIEVCKAGGTIVQVGMGQEEIQFPISIIPTKELTFQGCFRYCQGDYSDSIELVSSRKLSLKPFITHRYSFKDAVEAFEETSHHPLNNIKTIIEGPE
B6: ScXDH (Saccharomyces cerevisiae S288C; D113C/D99C/M105C/S102C) (protein)
chain: B5 chain with D99C, S102C, M105C, D113C
B7: SpXDH C97S mutant (enzyme, Schizosaccharomyces pombe, UniProt P36624 1-360, looked up)
chain: MAPAEKAFVLRKKMDTAIEDRPGQTLTDDHQVKVAIKATGICGSDVHYWKEGGIGDFILKKPMILGHESAGVVVEVGKGVSSLKPGDPVAVEPGCVSRLCDYCRSGRYNLCPHMEFAATPPYDGTLRTYYITTEDFCTKLPKQISVEEGALFEPMSVAVHAMTRGNLKCGSRVLVMGCGTVGLLMMAVAKAYGAIDIVAVDASPSRVEFAQKYVGAKPFTPIAAKENESLPDYAQRYKQAIIEKYGEFDFAVDATGVGICIHTAVLALKRGGTFVQAGNGKPVIDFPINHIINYEINVLGSFRYAHGCYKQSLFLVSNGLVDVKPLITHRFAFKDALKAYETVASGEEGVLKVIIGGPDA
notes: SPBC1773.05c protein of S. pombe (SpXDH), cloned into pQE-81L; source: E. coli DH5α, purified (Ni-NTA)
B8: SpXDH (Schizosaccharomyces pombe 972h-; C111D) (protein)
chain: B7 chain with S97C, C111D
B9: SpXDH C97D mutant (enzyme, Schizosaccharomyces pombe, UniProt P36624 1-360, looked up)
chain: B7 chain with S97D
notes: as for B7
B10: SpXDH C103D mutant (enzyme, Schizosaccharomyces pombe, UniProt P36624 1-360, looked up)
chain: B7 chain with S97C, C103D
notes: as for B7
B11: SpXDH C103S mutant (enzyme, Schizosaccharomyces pombe, UniProt P36624 1-360, looked up)
chain: B7 chain with S97C, C103S
notes: as for B7
B12: SpXDH (Schizosaccharomyces pombe 972h-; C100D) (protein)
chain: B7 chain with S97C, C100D
B13: SpXDH C111S mutant (enzyme, Schizosaccharomyces pombe, UniProt P36624 1-360, looked up)
chain: B7 chain with S97C, C111S
notes: as for B7
B14: SpXDH wild type (xylitol dehydrogenase, SPBC1773.05c protein from Schizosaccharomyces pombe) (enzyme, UniProt P36624 1-360, looked up)
chain: B7 chain with S97C
notes: cloned into pQE-81L; also called SpXDHWT; WT; source: E. coli DH5α, purified (Ni-NTA)
B15: SpXDH C100S mutant (enzyme, Schizosaccharomyces pombe, UniProt P36624 1-360, looked up)
chain: B7 chain with S97C, C100S
notes: as for B7

Columns and labels:
[1] = biological target: the molecule itself; experiment: SEC; analytical size-exclusion chromatography of PsXDHC4 in solution
purified protein [2] = substrate: OC[C@@H](O)[C@H](O)[C@@H](O)CO; experiment: purified protein; assay type: biochemical, Scheffersomyces stipitis; conditions: […] NAD+, 50 mM Tris-HCl pH 8.0, 30 °C
purified protein [3] = substrate: OC[C@@H](O)[C@H](O)[C@@H](O)CO; experiment: purified protein; conditions: 1.5 mM NAD+, 50 mM Tris-HCl pH 8.0, 30 °C
[4] = biological target: the molecule itself; experiment: SEC; gel filtration of the sample purified by Ni-NTA (HiLoad 16/600 Superdex 200 pg, 20 mM Tris-HCl pH 8.0, 150 mM NaCl)

Protein	Km (purified protein [3]; 1-10 mM xylitol) [mM]	kcat (purified protein [3]; 1-10 mM xylitol) [s⁻¹]	kcat/Km (purified protein [3]; 1-10 mM xylitol) [M⁻¹ s⁻¹]	stoichiometry N [4]	further results
B1					stoichiometry N [1]: 4
B2					Km (purified protein [2]; 0.1-1 mM xylitol): 2.05 ± 0.20 mM; kcat (purified protein [2]; 0.1-1 mM xylitol): 0.63 ± 0.0583 s⁻¹; kcat/Km (purified protein [2]; 0.1-1 mM xylitol): 307 ± 3.33 M⁻¹ s⁻¹
B3					Km (purified protein [2]; 0.1-1 mM xylitol): 4.94 ± 1.62 mM; kcat (purified protein [2]; 0.1-1 mM xylitol): 6.4 ± 1.85 s⁻¹; kcat/Km (purified protein [2]; 0.1-1 mM xylitol): 1320 ± 66.7 M⁻¹ s⁻¹
B4					Km (purified protein [2]; 1-10 mM xylitol): 11.0 ± 1.2 mM; kcat (purified protein [2]; 1-10 mM xylitol): 9.17 ± 0.633 s⁻¹; kcat/Km (purified protein [2]; 1-10 mM xylitol): 837 ± 28.3 M⁻¹ s⁻¹
B5					Km (purified protein [3]; 0.1-1 mM xylitol): 1.82 ± 0.42 mM; kcat (purified protein [3]; 0.1-1 mM xylitol): 0.0182 s⁻¹; kcat/Km (purified protein [3]; 0.1-1 mM xylitol): 10.1 M⁻¹ s⁻¹
B6					Km (purified protein [3]; 0.1-1 mM xylitol): 5.44 ± 0.78 mM; kcat (purified protein [3]; 0.1-1 mM xylitol): 0.402 s⁻¹; kcat/Km (purified protein [3]; 0.1-1 mM xylitol): 74 M⁻¹ s⁻¹
B7	12.3 ± 2.3	6.03	493	4	
B8	9.76 ± 0.15	3.6	368		
B9	10.4 ± 0.1	6.78	650	4	
B10	10.5 ± 0.7	7.82	743	4	
B11				4	Km (purified protein [3]; xylitol range not marked): 9.01 ± 0.74 mM; kcat (purified protein [3]; xylitol range not marked): 2.08 s⁻¹; kcat/Km (purified protein [3]; xylitol range not marked): 233 M⁻¹ s⁻¹
B12	8.26 ± 0.89	2.17	263		
B13				4	
B14	6.10 ± 0.34	6.95	1140	4	
B15	16.2 ± 5.0	0.202	12.4	4	
